The chains are these.
B1: myc-MICAL1 [human] / GRAF1b-GFP [human] (parent complex)
chain 1: MASPTSTNPAHAHFESFLQAQLCQDVLSSFQELCGALGLEPGGGLPQYHKIKDQLNYWSAKSLWTKLDKRAGQPVYQQGRACTSTKCLVVGAGPCGLRVAVELALLGARVVLVEKRTKFSRHNVLHLWPFTIHDLRALGAKKFYGRFCTGTLDHISIRQLQLLLLKVALLLGVEIHWGVTFTGLQPPPRKGSGWRAQLQPNPPAQLANYEFDVLISAAGGKFVPEGFKVREMRGKLAIGITANFVNGRTVEETQVPEISGVARIYNQSFFQSLLKATGIDLENIVYYKDDTHYFVMTAKKQCLLRLGVLRQDWPDTNRLLGSANVVPEALQRFTRAAADFATHGKLGKLEFAQDAHGQPDVSAFDFTSMMRAESSARVQEKHGARLLLGLVGDCLVEPFWPLGTGVARGFLAAFDAAWMVKRWAEGAESLEVLAERESLYQLLSQTSPENMHRNVAQYGLDPATRYPNLNLRAVTPNQVRDLYDVLAKEPVQRNNDKTDTGMPATGSAGTQEELLRWCQEQTAGYPGVHVSDLSSSWADGLALCALVYRLQPGLLEPSELQGLGALEATAWALKVAENELGITPVVSAQAVVAGSDPLGLIAYLSHFHSAFKSMAHSPGPVSQASPGTSSAVLFLSKLQRTLQRSRAKENAEDAGGKKLRLEMEAETPSTEVPPDPEPGVPLTPPSQHQEAGAGDLCALCGEHLYVLERLCVNGHFFHRSCFRCHTCEATLWPGGYEQHPGDGHFYCLQHLPQTDHKAEGSDRGPESPELPTPSENSMPPGLSTPTASQEGAGPVPDPSQPTRRQIRLSSPERQRLSSLNLTPDPEMEPPPKPPRSCSALARHALESSFVGWGLPVQSPQALVAMEKEEKESPFSSEEEEEDVPLDSDVEQALQTFAKTSGTMNNYPTWRRTLLRRAKEEEMKRFCKAQTIQRRLNEIEAALRELEAEGVKLELALRRQSSSPEQQKKLWVGQLLQLVDKKNSLVAEEAELMITVQELNLEEKQWQLDQELRGYMNREENLKTAADRQAEDQVLRKLVDLVNQRDALIRFQEERRLSELALGTGAQG
chain 2: MGLPALEFSDCCLDSPHFRETLKSHEAELDKTNKFIKELIKDGKSLISALKNLSSAKRKFADSLNEFKFQCIGDAETDDEMCIARSLQEFATVLRNLEDERIRMIENASEVLITPLEKFRKEQIGAAKEAKKKYDKETEKYCGILEKHLNLSSKKKESQLQEADSQVDLVRQHFYEVSLEYVFKVQEVQERKMFEFVEPLLAFLQGLFTFYHHGYELAKDFGDFKTQLTISIQNTRNRFEGTRSEVESLMKKMKENPLEHKTISPYTMEGYLYVQEKRHFGTSWVKHYCTYQRDSKQITMVPFDQKSGGKGGEDESVILKSCTRRKTDSIEKRFCFDVEAVDRPGVITMQALSEEDRRLWMEAMDGREPVYNSNKDSQSEGTAQLDSIGFSIIRKCIHAVETRGINEQGLYRIVGVNSRVQKLLSVLMDPKTASETETDICAEWEIKTITSALKTYLRMLPGPLMMYQFQRSFIKAAKLENQESRVSEIHSLVHRLPEKNRQMLQLLMNHLANVANNHKQNLMTVANLGVVFGPTLLRPQEETVAAIMDIKFQNIVIEILIENHEKIFNTVPDMPLTNAQLHLSRKKSSDSKPPSCSERPLTLFHTVQSTEKQEQRNSIINSSLESVSSNPNSILNSSSSLQPNMNSSDPDLAVVKPTRPNSLPPNPSPTSPLSPSWPMFSAPSSPMPTSSTSSDSSPVSTPFRKAKALYACKAEHDSELSFTAGTVFDNVHPSQEPGWLEGTLNGKTGLIPENYVEFL
B2: GFP-VAPA [human] / myc-WDR44 [human] (parent complex)
chain 1: MASASGAMAKHEQILVLDPPTDLKFKGPFTDVVTTNLKLRNPSDRKVCFKVKTTAPRRYCVRPNSGIIDPGSTVTVSVMLQPFDYDPNEKSKHKFMVQTIFAPPNTSDMEAVWKEAKPDELMDSKLRCVFEMPNENDKLNDMEPSKAVPLNASKQDGPMPKPHSVSLNDTETRKLMEECKRLQGEMMKLSEENRHLRDEGLRLRKVAHSDKPGSTSTASFRDNVTSPLPSLLVVIAAIFIGFFLGKFIL
chain 2: MASESDTEEFYDAPEDVHLGGGYPVGSPGKVGLSTFKETENTAYKVGNESPVQELKQDVSKKIIESIIEESQKVLQLEDDSLDSKGKELSDQATASPIVARTDLSNIPGLLAIDQVLPEESQKAESQNTFEETELELKKCFPSDETCEKPVDETTKLTQTSSTEQLNVLETETEVLNKEAVEVKGGGDVLEPVSSDSLSTKDFAAVEEVAPAKPPRHLTPEPDIVASTKKPVPARPPPPTNFPPPRPPPPSRPAPPPRKRKSELEFETLKTPDIDVPKENITSDSLLTASMASESTVKDSQPSLDLASATSGDKIVTAQENGKAPDGQTVAGEVMGPQRPRSNSGRELTDEEILASVMIKNLDTGEEIPLSLAEEKLPTGINPLTLHIMRRTKEYVSNDAAQSDDEEKLQSQPTDTDGGRLKQKTTQLKKFLGKSVKRAKHLAEEYGERAINKVKSVRDEVFHTDQDDPSSSDDEGMPYTRPVKFKAAHGFKGPYDFDQIKVVQDLSGEHMGAVWTMKFSHCGRLLASAGQDNVVRIWALKNAFDYFNNMRMKYNTEGRVSPSPSQESLSSSKSDTDTGVCSGTDEDPDDKNAPFRQRPFCKYKGHTADLLDLSWSKNYFLLSSSMDKTVRLWHISRRECLCCFQHIDFVTAIAFHPRDDRYFLSGSLDGKLRLWNIPDKKVALWNEVDGQTKLITAANFCQNGKYAVIGTYDGRCIFYDTEHLKYHTQIHVRSTRGRNKVGRKITGIEPLPGENKILVTSNDSRIRLYDLRDLSLSMKYKGYVNSSSQIKASFSHDFTYLVSGSEDKYVYIWSTYHDLSKFTSVRRDRNDFWEGIKAHNAVVTSAIFAPNPSLMLSLDVQSEKSEGNEKSEDAEVLDATPSGIMKTDNTEVLLSADFTGAIKVFVNKRKNVS
B3: myc-MICAL1 [human] / GRAF2-GFP [human] (parent complex)
chain 1: B1 chain 1
chain 2: MGLQPLEFSDCYLDSPWFRERIRAHEAELERTNKFIKELIKDGKNLIAATKSLSVAQRKFAHSLRDFKFEFIGDAVTDDERCIDASLREFSNFLKNLEEQREIMALSVTETLIKPLEKFRKEQLGAVKEEKKKFDKETEKNYSLIDKHLNLSAKKKDSHLQEADIQVEQNRQHFYELSLEYVCKLQEIQERKKFEFVEPMLSFFQGMFTFYHQGHELAKDFNHYKMELQINIQNTRNRFEGTRSEVEELMNKIRQNPKDHKRASQFTAEGYLYVQEKRPAPFGSSWVKHYCMYRKAAKKFNMIPFEHRSGGKLGDGEVFFLKECTKRHTDSIDRRFCFDIEAADRPGVSLTMQAFSEEERKQWLEALGGKEALSHSFNTAIIPRPEGNAQLDKMGFTIIRKCISAVETRGINDQGLYRVVGVSSKVQRLLSMLMDVKTCNEVDLENSADWEVKTITSALKQYLRSLPEPLMTYELHGDFIVPAKSGSPESRVNAIHFLVHKLPEKNKEMLDILVKHLTNVSNHSKQNLMTVANLGVVFGPTLMRPQEETVAALMDLKFQNIVVEILIENHEKIFRTPPDTTFPEPTCLSASPPNAPPRQSKRQGQRTKRPVAVYNLCLELEDGDNPYPSKEDTPTSSLDSLSSPSPVTTAVPGPPGPDKNHLLADGGSFGDWASTIPGQTRSSMVQWLNPQSPTTTSSNSAVTPLSPGSSPFPFSPPATVADKPPESIRSRKARAVYPCEAEHSSELSFEIGAIFEDVQTSREPGWLEGTLNGKRGLIPQNYVKLL

Results on 3 variants are retold here after PMC7199855, “GRAF2, WDR44, and MICAL1 mediate Rab8/10/11–dependent export of E-cadherin, MMP14, and CFTR ΔF508” (The Journal of Cell Biology, 2020).

Variants of B1 are the subject of one assay. Kind of assay: co-immunoprecipitation (IP with α-myc-coated beads, quantified western blot); transfected 293T cells; n = 3–5; means ± SEM; parent: 1; read off a plot.
As to chain 1 K832A, the ratio to parent is about 0.05.

In the next assay the parent is B2. Kind of assay: co-immunoprecipitation (IP with α-GFP, quantified western blot); transfected 293T cells; n = 3 or 4; means ± SEM; parent: 1; read off a plot. Background: A western blot detects proteins with antibodies after separation by electrophoresis.
chain 1 K94D, chain 1 M96D: the ratio to parent is about 0.4.

Another assay covers variants of B3. Kind of assay: co-immunoprecipitation (IP with α-myc-coated beads, quantified western blot); transfected 293T cells; n = 3 or 4; means ± SEM; parent: 1; read off a plot.
With chain 1 K832A, the ratio to parent is about 0.03.
